The results in this text go back to publication PMC3727933 (Molecular Biology of the Cell, 2013).

As a reminder, the stoichiometry N is a count of units in the complex or per binding partner.

This data set concerns the molecule itself. As to the kind of experiment: SEC. Background: Size exclusion chromatography separates by hydrodynamic size, large species first.

B1: Nwk^1-428∆tips (domain or fragment, Drosophila, UniProt X2JAU8 1-428, looked up)
chain: MQPPPRKGNYVKFLKNLHTEQVAKLQLKNQHECDLLEDIRQFTIKRSAVEKSYSESLLKISSQYLNKKIPNIPDIKMEGMEERWNMWSVWRTVLEENEKLARARLAAIEVFQQQIADEAKVLRDYKLAIAKRSLAGIVNVQKELHLSVGDVDKTKKSYFDEEHCAHDVRDKARDIEEKLKNLITSLQKNSARVTSRKELLEEKSSGARNDYVLSLAAANAHQNRYFTVDLQTTMTTMENYVFERVAEYLMLMGRTELLTCSATQNSFGKIRDQAQQLTREYNLQCCYLFYPVLKQHIQYDFEACDNDPVRKVTAEHESAAETLTKEAKNLAGRVVKENASIRENAKKLALCQSLRDSGQRTDPNDPNGPDLDTKIEEFRDQIRRSETEKTKAEACLQCLRDGGINVDEWVQEAENMGVQEL
Take B1: the “stoichiometry N” value turned out to be 2.
